Results as given in patent US11866736B2, “Protein prostheses for mitochondrial diseases or conditions” (The General Hospital Corporation, priority 2015, dated 2024).

System: HeLa Tet3G cells
Test: Total NAD+/NADH ratio by HPLC
Assay type: cell-based, human
Conditions: doxycycline-inducible expression
Method: One million HeLa Tet3G Luciferase, LbNOX or mitoLbNOX cells were seeded per a 10 cm plate in 10 ml of DMEM (DMEM (US Biological, D9800), 3.7 g/L NaHCO3, 10% dialyzed FBS (Life Technologies, 26400-044)). Twenty four hours and 1 hour before extraction, media was exchanged to 10 ml of DMEM without pyruvate (DMEM (US Biological, D9802), 15.9 mg/L phenol red, 3.7 g/L NaHCO3, 10% dialyzed FBS (Life Technologies, 26400-044)) with or without 300 ng/ml doxycycline. The media that was used 1 hour before extraction was preincubated overnight in tissue culture incubator without cells. Media was quickly aspirated, cells rinsed with 15 ml of ice-cold PBS, transferred to dry ice and 4 ml of dry ice cold solution of 80% methanol: 20% water (spiked with 5 μM Sodium L-Lactate-3,3,3-D3 and 0.2 μM Sodium [3-^13C]Pyruvate) was added and quickly spread around by tilting the plate. The whole procedure from aspiration of media to adding 80% methanol solution took about ˜15 seconds. The plate was transferred on dry ice to −80° C. freezer and incubated for 15 min. […]
Metabolites were analyzed by ion exchange chromatography using μBondapak NH2 300×3.9-mm column (Waters, WAT084040) attached to Agilent 1260 HPLC system. […] Absorbance was monitored at […] for NADH. […] Energy charge calculated ([ATP]+0.5 [ADP])/([ATP]+[ADP]+[AMP]) was usually ˜0.95.

B1: LbNOX: water-forming NADH oxidase endogenous to Lactobacillus brevis; tested with C-terminal FLAG tag (protein, listed as Lactobacillus brevis)
chain: KVTVVGCTHAGTFAIKQILAEHPDAEVTVYERNDVISFLSCGIALYLGGKVADPQGLFYSSPEELQKLGANVQMNHNVLAIDPDQKTVTVEDLTNHAQTTESYDKLVMTSGSWPIVPKIPGIDSDRVKLCKNWAHAQALIEDAKEAKRITVIGAGYIGAELAEAYSTTGHDVTLIDAMARVMPKYFDADFTDVIEQDYRDHGVQLALGETVESFTDSATGLTIKTDKNSYETDLAILCIGFRPNTDLLKGKVDMAPNGAIITDDYMRSSNPDIFAAGDSAAVHYNPTHQNAYIPLATNAVRQGILVGKNLVKPTVKYMGTQSSSGLALYDRTIVSTGLTLAAAKQQGLNAEQVIVEDNYRPEFMPSTEPVLMSLVFDPDTHRILGGALMSKYDVSQSANTLSVCIQNENTIDDLAMVDMLFQPNFDRPFNYLNILAQAAQAKVAQSVNA
modifications: C-terminal FLAG tag
effect on total NAD+/NADH ratio: did not have a significant effect
